In patent publication US20100098709A1 (AstraZeneca / MedImmune, published 2010):

T1: FLAG HIS tagged soluble IL-6Ra (human, UniProt P08887 20-358, limits assumed)
T1 construct: the key was followed; also called HIS FLAG sIL-6R; FLAG-sIL-6R
T1 sequence: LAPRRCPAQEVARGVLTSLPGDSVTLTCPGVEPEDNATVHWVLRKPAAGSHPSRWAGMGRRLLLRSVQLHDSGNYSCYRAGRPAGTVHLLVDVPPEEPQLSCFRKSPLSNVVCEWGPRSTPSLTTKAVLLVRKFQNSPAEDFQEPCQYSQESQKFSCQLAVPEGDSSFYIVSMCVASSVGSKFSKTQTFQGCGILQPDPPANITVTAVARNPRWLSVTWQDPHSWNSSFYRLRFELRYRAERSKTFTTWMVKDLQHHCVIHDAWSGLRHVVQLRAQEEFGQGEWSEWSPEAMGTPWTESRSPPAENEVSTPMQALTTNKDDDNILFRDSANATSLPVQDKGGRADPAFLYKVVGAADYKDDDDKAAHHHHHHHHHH


Columns and labels:
[1] = target: T1, FLAG HIS tagged soluble IL-6Ra; experiment: phage ELISA, antigen on anti-FLAG plate
[2] = target: T1, FLAG HIS tagged soluble IL-6Ra; experiment: phage ELISA
[3] = target: T2, biotinylated anti-FLAG monoclonal antibody (Sigma F9291); experiment: phage ELISA, anti-FLAG treated plate alone
T2 construct: Control coat of the phage ELISA plates (streptavidin plate treated with the anti-FLAG antibody, then MPBS only); also called anti FLAG antibody treated plates alone

[4] = target: T1, FLAG HIS tagged soluble IL-6Ra; experiment: ELISA and HTRF soluble binding assay, IgG
[5] = target: T3, HIS FLAG irrelevant ligand; experiment: HTRF soluble binding assay, 1 nM IgG, 20 nM HIS FLAG protein
T3 construct: Unnamed control of the HTRF soluble assay; also called irrelevant FLAG HIS ligand
Method: (§1) Purified IgG from positive clones identified from screening of crude periplasmic scFv and purified scFv, were tested in a HTRF® assay for binding to FLAG HIS tagged Hyper IL-6, FLAG HIS IL-6 and FLAG HIS sIL-6R.
(§2) Example data for binding of IgG of positive clones identified from screening of crude periplasmic scFv. Data shown in table 3 is expressed as % delta F at an IgG concentration of 1 nM (final assay concentration) and 20 nM of HIS FLAG protein (final assay concentration).

[6] = target: T1, FLAG HIS tagged soluble IL-6Ra; experiment: as above
Method: as §1, §2

[7] = target: T4, HIS FLAG irrelevant receptor; experiment: as above
T4 construct: Unnamed control of the HTRF soluble assay; also called irrelevant FLAG HIS receptor
Method: as §1, §2

[8] = target: T1, FLAG HIS tagged soluble IL-6Ra; experiment: ELISA, IgG captured by anti-human Fc, 50 nM protein
Method: (§3) Immunoassay plates were washed 3 times using PBST, then blocked by addition of 300 μl/well MPBS for 1 h at room temperature. After a second washing step 2 μg/ml of the anti-complex antibody in PBS was added to the plate at 50 μl/well. The plates were incubated for 1 h at room temperature before being washed again as previously described. FLAG-tagged reagents (IL-6, sIL-6R, Hyper Complexes) were diluted to 50 nM in MPBS. Complexes were made using 50 nM of the FLAG-tagged component and a 2-fold molar excess of the untagged component. Four-fold serial dilutions were prepared of each of the reagents, which were then added to duplicate wells of the immunoassay plates at 50 μl/well. Control wells containing 50 nM irrelevant protein (in this case his FLAG tagged murine GMCSF-R), or MPBS only were also prepared. The immunoassay plates were then incubated for 1 h at room temperature. After a further washing step, biotinylated anti-FLAG monoclonal antibody (Sigma) diluted to 1 μg/ml in MPBS was added to all wells at 50 μl/well. The plates were incubated for 1 h at room temperature before the plates were again washed as before. Europium labelled streptavidin (Perkin Elmer 1244-360) was diluted to 100 ng/ml in Delfia assay buffer (Perkin Elmer 4002-0010), added to all wells at 50 μl/well and incubated for 1 h at room temperature. The immunoassay plates were then washed 7 times in Delfia wash buffer, consisting of 0.05 M Tris buffered saline (NaCl-0.138 M, KCl-0.0027 M) Tween 20 (0.05%), pH 8.0 (at 25° C.). A 50 μl volume of Delfia enhancement solution (Perkin Elmer 4001-0010) was then added to all wells. The plates were incubated for 10 mins before the Time-resolved fluorescence was measured at 620 nm using an EnVision plate reader.

[9] = target: T5, FLAG HIS tagged Hyper IL-6; experiment: HTRF, inhibition of Hyper IL-6 binding to biotinylated gp130 Fc; IgG
T5 construct: also called HIS FLAG Hyper IL-6
Method: Purified IgG from positive clones identified from screening of crude periplasmic scFv and purified scFv were tested in a HTRF® assay for inhibition of binding of FLAG HIS tagged Hyper IL-6 binding to biotinylated recombinant human gp130 Fc. This assay was performed as for purified scFv (Example 3) with the following modifications. 6 nM biotinylated human recombinant gp130 Fc (10 μl/well) was used to give a final concentration of 1 nM of gp130Fc.
Purified scFv were diluted 1:3 by transferring 15 μl of purified scFv to 30 μl assay buffer and mixing by pipetting in 96 well plate (Greiner 650201). Dilutions were carried out sequentially in duplicate a further 9 times. 3 nM GP130 Fc (10 μl/well) to give a final concentration of 0.5 nM, 6 nM Hyper IL-6 (10 μl/well) to give a final concentration of 1 nM and combined HTRF reagents 2.598 nM anti-flag IgG labelled with cryptate and 30 nM anti-human Fc antibody labelled with XL665 (10 μl/well) were added to 30 μl of purified scFv titration in 96 well plate. 40 μl was then transferred to a black 384 well optiplate. All dilutions were performed in assay buffer.

[10] = target: T6, HIS FLAG tagged human IL-6 (human, UniProt P05231 30-212); experiment: ELISA and HTRF soluble binding assay, IgG
T6 construct: also called HIS FLAG IL-6; FLAG-IL-6

[11] = target: T5, FLAG HIS tagged Hyper IL-6; experiment: HTRF soluble binding assay, 1 nM IgG, 20 nM HIS FLAG protein
Method: as §1, §2

[12] = target: T6, HIS FLAG tagged human IL-6; experiment: as above
Method: as §1, §2

[13] = target: T7, Complex 2: IL-6/HIS FLAG sIL-6R (human, UniProt P05231 30-212; P08887 20-358, limits assumed); experiment: ELISA, IgG captured by anti-human Fc, 50 nM protein
T7 construct: Non-covalent complex made by pre-incubating the two proteins; Untagged IL-6 was bought; also called IL-6/sIL-6R complex consisting of untagged ligand and FLAG tagged receptor
Method: as §3

[14] = target: T5, FLAG HIS tagged Hyper IL-6; experiment: as above
Method: as §3

[15] = target: T8, Complex 1: HIS FLAG IL-6/sIL-6R (human, UniProt P05231 30-212; P08887 20-358, limits assumed); experiment: as above
T8 construct: Non-covalent complex made by pre-incubating the two proteins; The untagged sIL-6R was bought; also called IL-6/sIL-6R complex consisting of FLAG tagged ligand and untagged receptor
Method: as §3

[16] = target: T6, HIS FLAG tagged human IL-6; experiment: as above
Method: as §3

Row | Absorbance (450 nM) [1] | binding result [2] | Absorbance (450 nM) [3] | binding result [4] | % delta F [5] | % delta F [6] | % delta F [7] | Europium Counts [8] | Binder | also measured
1 | 0.167 | no binding | 0.053 |  |  |  |  |  | Antibody 4 scFv (scFv, V domains shown, also called Ab 4) VH: not shown VL: QAVLTQPSSVSGAPGQRVSISCTGSSSNIGAGYEVHWYQHLPGTAPKLLIYGNNNRPSGVPDRFSGSKSGTSASLAITGLQAEDEADYYCQSYDNNLPGSRVFGGGTKVTVLG | 
2 |  |  |  | no binding | 13% | 18% | 7% | 2000 counts | Antibody 4 IgG (antibody, V domains shown, also called Ab 4) VH: not shown VL: QAVLTQPSSVSGAPGQRVSISCTGSSSNIGAGYEVHWYQHLPGTAPKLLIYGNNNRPSGVPDRFSGSKSGTSASLAITGLQAEDEADYYCQSYDNNLPGSRVFGGGTKVTVLG | 
3 | 0.083 | no binding | 0.052 |  |  |  |  |  | Antibody 2 scFv (scFv, V domains shown, also called Ab 2) VH: not shown VL: QAVLTQPSSVSGAPGQRVTISCAGSSSNIGAGYDVHWYQQVPGTAPKLLIYGDTNRPSGVPDRFSGSKFGTSASLTITGLQAEDEADYYCQSYDNSLSTSDWVFGGGTKVTVLG | 
4 |  |  |  | no binding | 11% | 10% | 5% | 2450 counts | Antibody 2 IgG (antibody, V domains shown, also called Ab 2) VH: not shown VL: QAVLTQPSSVSGAPGQRVTISCAGSSSNIGAGYDVHWYQQVPGTAPKLLIYGDTNRPSGVPDRFSGSKFGTSASLTITGLQAEDEADYYCQSYDNSLSTSDWVFGGGTKVTVLG | 
5 | 0.059 | no binding | 0.052 |  |  |  |  |  | Antibody 1 scFv (scFv, V domains shown, also called Ab 1) VH: not shown VL: SYVLTQPPSVSVAPGQTATITCGGNNIGLKSVHWYQQKPGQAPLLVVHDDSARPSGIPERFSGSNSGNTATLTISRVEAGDEADYSCQVWDNSGGLWVFGGGTKVTVLG | 
6 |  |  |  | no binding | 8% | 4% | 11% | 1340 counts | Antibody 1 IgG (antibody, V domains shown, also called Ab 1) VH: not shown VL: SYVLTQPPSVSVAPGQTATITCGGNNIGLKSVHWYQQKPGQAPLLVVHDDSARPSGIPERFSGSNSGNTATLTISRVEAGDEADYSCQVWDNSGGLWVFGGGTKVTVLG | 
7 | 0.056 | no binding | 0.049 |  |  |  |  |  | Antibody 3 scFv (scFv, V domains shown, also called Ab 3) VH: not shown VL: QSVLTQPPSVSGAPGQRVNISCTGSSSNIGAGYDVHWYQQLPGTAPKLLIYGNNNRPSGVPDRFSGSKSGTSASLAITGLQAEDEADYYCQSYDSSLSGYVFGTGTKVTVLG | 
8 |  |  |  | no binding | 1% | 9% | 3% | 1500 counts | Antibody 5 IgG (antibody, V domains shown, also called Ab 5) VH: not shown VL: QSVLTQPPSVSGAPGQRVTISCTGSSSNIGAGYDVHWYQQLPGTAPKLLIYGNSNRPSGVPDRFSGSKSGTSASLAITGLQAEDEADYYCQSYDSSLSGWVFGGGTKVTVLG | IC50 [9]: 0.7 nM; binding result [10]: no binding; % delta F [11]: 331%; % delta F [12]: 4%; Europium Counts [13]: 417000 counts; Europium Counts [14]: 383000 counts; Europium Counts [15]: 120000 counts; Europium Counts [16]: 1730 counts
9 |  |  |  | no binding | 10% | 6% | 11% | 1420 counts | Antibody 3 IgG (antibody, V domains shown, also called Ab 3) VH: not shown VL: QSVLTQPPSVSGAPGQRVNISCTGSSSNIGAGYDVHWYQQLPGTAPKLLIYGNNNRPSGVPDRFSGSKSGTSASLAITGLQAEDEADYYCQSYDSSLSGYVFGTGTKVTVLG | 
